Measured values as given in PMC3902925, “The double PHD finger domain of MOZ/MYST3 induces α-helical structure of the histone H3 tail to facilitate acetylation and methylation sampling and modification” (Nucleic Acids Research, 2013).

Target: histone H3 of calf thymus core histones (bovine (calf thymus), UniProt P68432 1-136)
Assay: cell-based or functional assay

B1: GST-MOZ DPF-MYST (194–810) (enzyme)
chain: LPHEKDKPVAEPIPICSFCLGTKEQNREKKPEELISCADCGNSGHPSCLKFSPELTVRVKALRWQCIECKTCSSCRDQGKNADNMLFCDSCDRGFHMECCDPPLTRMPKGMWICQICRPRKKGRKLLQKKAAQIKRRYTNPIGRPKNRLKKQNTVSKGPFSKVRTGPGRGRKRKITLSSQSASSSSEEGYLERIDGLDFCRDSNVSLKFNKKTKGLIDGLTKFFTPSPDGRKARGEVVDYSEQYRIRKRGNRKSSTSDWPTDNQDGWDGKQENEERLFGSQEIMTEKDMELFRDIQEQALQKVGVTGPPDPQVRCPSVIEFGKYEIHTWYSSPYPQEYSRLPKLYLCEFCLKYMKSRTILQQHMKKCGWFHPPANEIYRKNNISVFEVDGNVSTIYCQNLCLLAKLFLDHKTLYYDVEPFLFYVLTQNDVKGCHLVGYFSKEKHCQQKYNVSCIMILPQYQRKGYGRFLIDFSYLLSKREGQAGSPEKPLSDLGRLSYMAYWKSVILECLYHQNDKQISIKKLSKLTGICPQDITSTLHHLRMLDFRSDQFVIIRREKLIQDHMAKLQLNLRPVDVDPECLRWTPVIVSNSVVSEEEEEEAEEGENEEPQCQERELE
In the case of B1, the “initial rate of acetylation of core histones in time course HAT assays, DPF-MYST (194–810) against the MYST domain (510–810) alone” value is reported as no less than 8 fold.
